Assay [1] concerns the target T1, GPR77 (Homo sapiens, UniProt Q9P296).
T1 construct: gB:CD4 and gB:GPR77, express the full-length human membrane proteins at the gB locus under the control of native gB promoter; made in house; host or cells: HFT cells (telomerase-immortalised human foreskin fibroblasts) infected with recombinant HSV-1; purified extracellular virions
The assay is described as follows: Ligand binding assay on VirD Array. Conditions: C5a at 1 μM, gB:GPR77 virions on VirD Array. As for the experimental part: (§1) Ligand binding assay on VirD Array. The VirD Array was blocked in TBST with 1% BSA for 1 h at room temperature with gentle shaking. C5a (Abcam) was labeled with Cy5 NHS Easter (GE Healthcare) and incubated on the VirD Array at 1 μM in ligand binding buffer (1 mM MgCl2, 2 mM CalCl2, 0.2% BSA, and 25 mM HEPES, pH 7.4) at room temperature for 1 h with gentle shaking. The array was washed for […] in ice-cold washing buffer (0.5 M NaCl in 10 mM HEPES, pH 7.4) for 3 times with shaking, dried by spinning, and scanned as described above.

For assay [2], the system named is GPR77. The assay is described as follows: Ligand binding assay on VirD Array. Details: species or system human. The following applies: C5a at 1 μM. As to the method:
as §1

T1 sequence (Q9P296 whole entry): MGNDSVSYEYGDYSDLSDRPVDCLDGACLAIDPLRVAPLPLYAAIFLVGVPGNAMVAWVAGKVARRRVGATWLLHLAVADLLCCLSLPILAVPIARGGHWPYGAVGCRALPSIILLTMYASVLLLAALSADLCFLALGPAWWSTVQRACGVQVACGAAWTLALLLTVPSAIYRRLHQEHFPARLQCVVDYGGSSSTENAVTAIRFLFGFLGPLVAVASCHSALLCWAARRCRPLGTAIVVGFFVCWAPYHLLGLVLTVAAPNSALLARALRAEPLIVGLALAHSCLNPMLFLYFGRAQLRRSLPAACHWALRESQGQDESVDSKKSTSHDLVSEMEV

B1: C5a: complement anaphylatoxin C5a, canonical ligand of GPR77 (Abcam), labeled with Cy5 (protein)
chain: TLQKKIEEIAAKYKHSVVKKCCYDGACVNNDETCEQRAARISLGPRCIKAFTECCVVASQLRANISHKDMQLGR
Regarding B1, in the assay with GPR77 [1], the “binding of Cy5-labeled C5a to gB:GPR77 virions” value is “weaker binding signals”. In the assay with GPR77 [2] (GPR77-gC virions on VirD Array), the “binding of Cy5-labeled C5a to GPR77-gC virions” value is listed as “strong binding activity”. Moreover, the “binding of Cy5-labeled C5a to other virions” value in the assay on GPR77 [2] (other virions on VirD Array (specificity)) was “no detectable signals”.

(Values after patent US10208290B2, “Virion display array for profiling functions and interactions of human membrane proteins” (THE JOHNS HOPKINS UNIVERSITY, priority 2013, dated 2019).)
